Measurements: article PMC8158037, “Staphylococcus aureus N-terminus formylated δ-toxin tends to form amyloid fibrils, while the deformylated δ-toxin tends to form functional oligomer complexes” (Virulence, 2021)
No end group written: not given here. *: point of attachment. For = O=C*

B1: PSMα1 (secreted by S. aureus MW2) (peptide)
chain: MGIIAGIIKVIKSLIEQFTGK
notes: also called phenol-soluble modulin α1
B2: PSMα2 (secreted by S. aureus MW2) (peptide)
chain: MGIIAGIIKFIKGLIEKFTGK
notes: also called phenol-soluble modulin α2
B3: PSMα3 (secreted by S. aureus MW2) (peptide)
chain: MEFVAKLFKFFKDLLGKFLGNN
notes: also called phenol-soluble modulin α3
B4: PSMα1, synthetic peptide (peptide)
chain: For-MGIIAGIIKVIKSLIEQFTGK
notes: source: synthetic peptide (Sangon Biotech, purity > 95%)
B5: PSMα2, synthetic peptide (peptide)
chain: For-MGIIAGIIKFIKGLIEKFTGK
notes: as for B4
B6: PSMα3, synthetic peptide (peptide)
chain: For-MEFVAKLFKFFKDLLGKFLGNN
notes: as for B4

Key:
Test in all cases: co-IP
Conditions in all cases: both partners purified
[1] = biological target: T1, δ-toxin (secreted by S. aureus MW2 and its ΔPSMα strain) (Staphylococcus aureus MW2, N-terminal methionine formylated in part of the peptides (fδ-toxin) and deformylated in the rest (dfδ-toxin); Aggregate1 more than 50% fδ-toxin, Aggregate2 more than 85% dfδ-toxin)
T1 construct: also called PSMγ; δ-hemolysin

[2] = biological target: B2
[3] = biological target: B1
[4] = biological target: B3
[5] = biological target: T2, deformylated δ-toxin, synthetic peptide (Staphylococcus aureus)
T2 construct: also called dfδ-toxin

PSMα2, synthetic peptide = biological target: B5
[6] = biological target: T3, N-terminus formylated δ-toxin, synthetic peptide (Staphylococcus aureus, N-formylmethionine at the N-terminus (fM))
T3 construct: also called fδ-toxin

PSMα3, synthetic peptide = biological target: B6
PSMα1, synthetic peptide = biological target: B4

Measured: binding result

MAIVGTIIKIIKAIIDIFAK (also called phenol-soluble modulin α4) [PSMα4 (secreted by S. aureus MW2)]
binds: [1] | [2] | [3] | [4]

B1
binds: [1] | [2] | [4]

B2
binds: [1] | [3] | [4]

B3
binds: [1] | [2] | [3]

B4
binds: [5] | PSMα2, synthetic peptide | [6] | PSMα3, synthetic peptide

B5
binds: PSMα1, synthetic peptide | [5] | [6] | PSMα3, synthetic peptide

B6
binds: PSMα1, synthetic peptide | [5] | PSMα2, synthetic peptide | [6]

B7: PSMα4, synthetic peptide (peptide)
chain: For-MAIVGTIIKIIKAIIDIFAK
notes: as for B4
binds: PSMα1, synthetic peptide | [5] | PSMα2, synthetic peptide | [6] | PSMα3, synthetic peptide
